According to PMC9122601, “A widespread family of WYL-domain transcriptional regulators co-localizes with diverse phage defence systems and islands”:
Changes are numbered by the printed parent chain.

How the values were obtained:
[1] = target: His6-BrxR from Escherichia fergusonii (Escherichia fergusonii ATCC 35469); experiment: SEC; analytical gel filtration, Superdex 200 Increase GL 5/150, 20 mM Tris-HCl pH 7.9, 150 mM NaCl, 0.175 ml/min; 50 μl samples with 5 μl of 1000 nM protein; oligomeric state from elution volume against calibration standards
[2] = target: BrxR from Escherichia fergusonii, untagged (Escherichia fergusonii ATCC 35469); experiment: as above
[3] = target: His6-BrxR-R17A from Escherichia fergusonii (Escherichia fergusonii ATCC 35469); experiment: as above
His6-BrxR (BrxR-Efer) [4] = target: T1, His6-BrxR (BrxR-Efer) (Escherichia fergusonii (plasmid pEFER), UniProt B7L3Y3 14-308); experiment: EMSA; EMSA: 10 mM Tris-HCl pH 7.9, 150 mM KCl, 0.5 mM EDTA, 0.2 mM DTT, 0.1% Triton X-100, 13% glycerol (1x of 5x buffer), 1 ug poly(dI-dC) per 10 ul, 2500 fmol probe, 25 C 30 min; 7% native PAGE in 0.5x TBE; conditions: protein: recombinant; tags: N-terminal His6; chain copies: 2; label: 5' 6-FAM on reverse strand (primer TRB1068); blunt
T1 sequence: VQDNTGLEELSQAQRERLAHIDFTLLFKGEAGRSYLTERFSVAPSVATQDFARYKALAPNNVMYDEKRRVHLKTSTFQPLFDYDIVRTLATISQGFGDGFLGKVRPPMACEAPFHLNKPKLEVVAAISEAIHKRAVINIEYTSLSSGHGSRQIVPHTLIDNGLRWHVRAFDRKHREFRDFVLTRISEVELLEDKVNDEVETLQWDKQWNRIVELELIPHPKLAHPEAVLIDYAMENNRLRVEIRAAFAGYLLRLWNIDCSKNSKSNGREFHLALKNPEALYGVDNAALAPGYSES

His6-BrxR (BrxR-Efer) [5] = target: T1, His6-BrxR (BrxR-Efer); experiment: EMSA; only non-specific binding at high protein; EMSA: 10 mM Tris-HCl pH 7.9, 150 mM KCl, 0.5 mM EDTA, 0.2 mM DTT, 0.1% Triton X-100, 13% glycerol (1x of 5x buffer), 1 ug poly(dI-dC) per 10 ul, 2500 fmol probe, 25 C 30 min; 7% native PAGE in 0.5x TBE; conditions: protein: recombinant; tags: N-terminal His6; chain copies: 2; label: 5' 6-FAM on reverse strand (primer TRB1068); blunt

In the case of “His6-BrxR from Escherichia fergusonii (natural protein)”, the stoichiometry N [1] is reported as 2.

For “BrxR from Escherichia fergusonii, untagged (natural protein)”, the stoichiometry N [2] was 2.

“His6-BrxR-R17A from Escherichia fergusonii (natural protein)” was tested, and the stoichiometry N [3] was 2.

B1: WT IR1-IR2 probe (R7, R-BOX1) (dsDNA)
DNA 1: GACGACTTGTTGATACTATGAAACCTACTGAAAAACAGTAGGTTGCTTGATGGCATTCAATCGATGGCTTAAGCTTTTGTCAGTGCGCA
DNA 2: TGCGCACTGACAAAAGCTTAAGCCATCGATTGAATGCCATCAAGCAACCTACTGTTTTTCAGTAGGTTTCATAGTATCAACAAGTCGTC
B1 gave a Kd (His6-BrxR (BrxR-Efer) [4]) of 13 ± 2.7 nM.

B2: IR1-IR2c probe (dsDNA)
DNA 1: B1 DNA 1 with A37C, G38C, T39C, A40C, G41C, G42C, T43C, T44C, G45C
DNA 2: B1 DNA 2 with C45G, A46G, A47G, C48G, C49G, T50G, A51G, C52G, T53G
B2 showed a Kd (His6-BrxR (BrxR-Efer) [4]) of 85.5 ± 18.7 nM.

B3: IR1c-IR2 probe (dsDNA)
DNA 1: B1 DNA 1 with G20C, A21C, A22C, A23C, T26C, A27C, T29C, G30C
DNA 2: B1 DNA 2 with C60G, A61G, T63G, A64G, T67G, T68G, T69G, C70G
B3 showed a Kd (His6-BrxR (BrxR-Efer) [4]) of 24 ± 6.5 nM.

B4: IR1c-IR2c probe (dsDNA)
DNA 1: GACGACTTGTTGATACTATCCCCCCCCCCCAAAAACCCCCCCCCCCTTGATGGCATTCAATCGATGGCTTAAGCTTTTGTCAGTGCGCA
DNA 2: TGCGCACTGACAAAAGCTTAAGCCATCGATTGAATGCCATCAAGGGGGGGGGGGTTTTTGGGGGGGGGGGATAGTATCAACAAGTCGTC
B4: no binding (His6-BrxR (BrxR-Efer) [5]).
